According to IntAct's records for PubMed 16866877:

B1: Brefeldin A-inhibited guanine nucleotide-exchange protein 2 (Homo sapiens), Q9Y6D5 (parent)
chain: MQESQTKSMFVSRALEKILADKEVKRPQHSQLRRACQVALDEIKAEIEKQRLGTAAPPKANFIEADKYFLPFELACQSKSPRVVSTSLDCLQKLIAYGHITGNAPDSGAPGKRLIDRIVETICSCFQGPQTDEGVQLQIIKALLTAVTSPHIEIHEGTILQTVRTCYNIYLASKNLINQTTAKATLTQMLNVIFTRMENQVLQEARELEKPIQSKPQSPVIQAAAVSPKFVRLKHSQAQSKPTTPEKTDLTNGEHARSDSGKVSTENGDAPRERGSSLSGTDDGAQEVVKDILEDVVTSAIKEAAEKHGLTEPERVLGELECQECAIPPGVDENSQTNGIADDRQSLSSADNLESDAQGHQVAARFSHVLQKDAFLVFRSLCKLSMKPLGEGPPDPKSHELRSKVVSLQLLLSVLQNAGPVFRTHEMFINAIKQYLCVALSKNGVSSVPDVFELSLAIFLTLLSNFKMHLKMQIEVFFKEIFLNILETSTSSFEHRWMVIQTLTRICADAQCVVDIYVNYDCDLNAANIFERLVNDLSKIAQGRSGHELGMTPLQELSLRKKGLECLVSILKCMVEWSKDLYVNPNHQTSLGQERLTDQEIGDGKGLDMARRCSVTSMESTVSSGTQTTVQDDPEQFEVIKQQKEIIEHGIELFNKKPKRGIQFLQEQGMLGTSVEDIAQFLHQEERLDSTQVGDFLGDSARFNKEVMYAYVDQLDFCEKEFVSALRTFLEGFRLPGEAQKIDRLMEKFAARYIECNQGQTLFASADTAYVLAYSIIMLTTDLHSPQVKNKMTKEQYIKMNRGINDSKDLPEEYLSSIYEEIEGKKIAMKETKELTIATKSTKQNVASEKQRRLLYNLEMEQMAKTAKALMEAVSHAKAPFTSATHLDHVRPMFKLVWTPLLAAYSIGLQNCDDTEVASLCLEGIRCAIRIACIFGMQLERDAYVQALARFSLLTASSSITEMKQKNIDTIKTLITVAHTDGNYLGNSWHEILKCISQLELAQLIGTGVKTRYLSGSGREREGSLKGHTLAGEEFMGLGLGNLVSGGVDKRQMASFQESVGETSSQSVVVAVDRIFTGSTRLDGNAIVDFVRWLCAVSMDELASPHHPRMFSLQKIVEISYYNMNRIRLQWSRIWHVIGDHFNKVGCNPNEDVAIFAVDSLRQLSMKFLEKGELANFRFQKDFLRPFEHIMKKNRSPTIRDMAIRCIAQMVNSQAANIRSGWKNIFAVFHQAASDHDGNIVELAFQTTCHIVTTIFQHHFPAAIDSFQDAVKCLSEFACNAAFPDTSMEAIRLIRFCGKYVSERPRVLQEYTSDDMNVAPGDRVWVRGWFPILFELSCIINRCKLDVRTRGLTVMFEIMKSYGHTFEKHWWQDLFRIVFRIFDNMKLPEQLSEKSEWMTTTCNHALYAICDVFTQFYEALNEVLLSDVFAQLQWCVKQDNEQLARSGTNCLENLVISNGEKFSPEVWDETCNCMLDIFKTTIPHVLLTWRPVGMEEDSSEKHLDVDLDRQSLSSIDKNPSERGQSQLSNPTDDSWKGRPYANQKLFASLLIKCVVQLELIQTIDNIVFYPATSKKEDAEHMVAAQQDTLDADIHIETEDQGMYKYMSSQHLFKLLDCLQESHSFSKAFNSNYEQRTVLWRAGFKGKSKPNLLKQETSSLACCLRILFRMYVDENRRDSWEEIQQRLLTVCSEALAYFITVNSESHREAWTSLLLLLLTKTLKINDEKFKAHASMYYPYLCEIMQFDLIPELRAVLRKFFLRIGVVYKIWIPEEPSQVPAALSPVW
partner: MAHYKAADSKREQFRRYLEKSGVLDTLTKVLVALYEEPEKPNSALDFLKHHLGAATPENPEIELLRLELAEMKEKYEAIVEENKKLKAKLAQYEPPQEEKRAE

Variants of: B1
Details: with mycbp_human MYCBP

Variant	effect of a mutation on the interaction
I292P	decreasing interaction
